B1: VH:VL chains; a variant is named by its letters at X, in order (parent)
chain 1: QVQLVQSGAEVKKPGASVKVSCKASGYTFTDYXMHWVRQAPGQGLEWMGXVNPNXXXTTYNQKFEGRVTMTTDTSTSTAYMELRSLRSDDTAVYYCARXNXLDXWGQGTTVTVSS
chain 2: DIQMTQSPSSLSASVGDRVTITCSVSSSVSSIYLHWYQQKPGKAPKLLIYSTSNLASGVPSRFSGSGSGTDFTLTISSLQPEDFATYYCQVYSGYPLTFGGGTKVEIK

Variants of B1 are the subject of the data set. As to the kind of experiment: yeast display scFab, FACS + sequencing. The method, boiled down: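 The non-specific binding call was based on sorted and sequenced yeast displaying a heavy-chain CDR mutant scFab library. Labelling used anti-Myc with biotinylated ovalbumin (260 μg/mL in PBSB, 3 h, room temperature) or soluble membrane proteins (130 μg/mL, 20 min on ice), and FACS collected the top 25% and bottom 10% of binders in two replicates. Positive meant present in ≥3 of 4 pooled positive samples and in no negatives, and negative meant the converse.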
With YKGRDAWD, the non-specific binding call is “binds”.

VKGKGDVY: the non-specific binding call is given as “no binding”.

For the variant VKGKGDAV, the non-specific binding call is reported as “no binding”.

For YKGKGFGF, the non-specific binding call is on record as “binds”.

On to YKGKGFGA, for which the non-specific binding call is given as “binds”.

Turning to YKGKGFGD, the non-specific binding call is “binds”.

With VKGRASWS, the non-specific binding call was “no binding”.

For AKGRAAAS chain 1 D103N, the non-specific binding call is “binds”.

Take SKGKGSSA: the non-specific binding call is recorded as “binds”.

On to VKGKGSAA, for which the non-specific binding call was “binds”.

VKGRAAVA: the non-specific binding call is given as “no binding”.

On to SKGRADVY, for which the non-specific binding call is on record as “no binding”.

With VKGRAFSV, the non-specific binding call is “no binding”.

Consider YKGKGYVD, for which the non-specific binding call was “binds”.

With YKGKGAWS, the non-specific binding call is on record as “binds”.

YKGKGAWY: the non-specific binding call is “binds”.

Regarding YKGKGAWD, the non-specific binding call is “binds”.

With YKGKGAWV, the non-specific binding call was “binds”.

As to YKGKGAWA, the non-specific binding call is on record as “binds”.

On to VKGKSSWS, for which the non-specific binding call was “binds”.

As to YKGKGAVA, the non-specific binding call is recorded as “binds”.

YKGRASAV: the non-specific binding call is recorded as “binds”.

FKGKGSGA: the non-specific binding call is recorded as “binds”.

For the variant VKGKGDWV, the non-specific binding call was “no binding”.

SKGKGAWY: the non-specific binding call is “binds”.

On to YKGRAAGS, for which the non-specific binding call is “binds”.

Regarding YKGKGDGD, the non-specific binding call was “binds”.

On to AKGKGAAV, for which the non-specific binding call was “binds”.

As for YKGKGSGS, the non-specific binding call is reported as “binds”.

For the variant YKGKGSGF, the non-specific binding call was “binds”.

Regarding YKGKGSGA, the non-specific binding call is “binds”.

For FKGKGALD, the non-specific binding call is on record as “binds”.

Turning to YKGRDASD, the non-specific binding call is recorded as “binds”.

As to YKGRDALD, the non-specific binding call is recorded as “binds”.

Turning to FKGKGSAD, the non-specific binding call is given as “binds”.

SKGRGAGS: the non-specific binding call was “binds”.

As for SKGKGVGA, the non-specific binding call is on record as “binds”.

Take YKGRDAGD: the non-specific binding call is recorded as “binds”.

Turning to VKGRADAD, the non-specific binding call is given as “no binding”.

In the case of VKGRADAA, the non-specific binding call is reported as “no binding”.

For the variant VKGRADAV, the non-specific binding call is listed as “no binding”.

For the variant YKGRGAGY, the non-specific binding call is listed as “binds”.

Take YKGRGAGF: the non-specific binding call is given as “binds”.

On to FKGKGAWY, for which the non-specific binding call was “binds”.

Turning to YKGKGVGV, the non-specific binding call is given as “binds”.

Take VKGRASSV: the non-specific binding call is “no binding”.

For the variant YKGKGFAA, the non-specific binding call is on record as “binds”.

Take YKGKGSVV: the non-specific binding call is recorded as “binds”.

As to YKGKGSVA, the non-specific binding call is recorded as “binds”.

Take YKGKGSVS: the non-specific binding call was “binds”.

Regarding VKGRADWV, the non-specific binding call is recorded as “no binding”.

For VKGRADWA, the non-specific binding call is on record as “no binding”.

As to VKGRADWD, the non-specific binding call is recorded as “no binding”.

Turning to VKGRADWY, the non-specific binding call is reported as “no binding”.

Turning to VKGRADWF, the non-specific binding call is listed as “no binding”.

Consider SKGKGSAA, for which the non-specific binding call is on record as “binds”.

YKGKGSAV: the non-specific binding call is reported as “binds”.

Take YKGKGSAA: the non-specific binding call is “binds”.

In the case of SKGKGAGF, the non-specific binding call is reported as “binds”.

Take SKGKGAGD: the non-specific binding call is “binds”.

Take FKGRGAAV: the non-specific binding call is “binds”.

FKGRGAAS: the non-specific binding call is recorded as “binds”.

Turning to FKGRGAAD, the non-specific binding call is “binds”.

As for FKGRGAAY, the non-specific binding call is recorded as “binds”.

Turning to VKGRASAS, the non-specific binding call is recorded as “no binding”.

In the case of VKGRASAF, the non-specific binding call was “no binding”.

In the case of YKGRGALA, the non-specific binding call is listed as “binds”.

Turning to FKGKGAGD, the non-specific binding call is “binds”.

VKGKGDLA: the non-specific binding call is listed as “no binding”.

As for YKGRDDVA, the non-specific binding call was “no binding”.

FKGKGAAV: the non-specific binding call was “binds”.

For FKGKGAAF, the non-specific binding call is “binds”.

On to VKGRADLY, for which the non-specific binding call is reported as “no binding”.

In the case of VKGRADLV, the non-specific binding call is recorded as “no binding”.

Regarding VKGRASGY, the non-specific binding call was “no binding”.

Regarding VKGRASGF, the non-specific binding call is reported as “no binding”.

Turning to VKGKGASA, the non-specific binding call was “binds”.

Take YKGKGALD: the non-specific binding call is on record as “binds”.

As to YKGKGALA, the non-specific binding call is “binds”.

As for VKGRADSF, the non-specific binding call was “no binding”.

On to VKGRADSA, for which the non-specific binding call was “no binding”.

VKGRADSV: the non-specific binding call was “no binding”.

Turning to YKGKSAWD, the non-specific binding call is listed as “binds”.

As to YKGKSAWV, the non-specific binding call is given as “binds”.

For YKGKGAGF, the non-specific binding call is “binds”.

Turning to YKGKGAGS, the non-specific binding call is listed as “binds”.

VKGKGAAF: the non-specific binding call is “binds”.

YKGKGSLD: the non-specific binding call was “binds”.

Take YKGKGSLF: the non-specific binding call is on record as “binds”.

Take YKGKGSLY: the non-specific binding call is listed as “binds”.

As for YKGKGSLA, the non-specific binding call was “binds”.

As for YKGKGSSS, the non-specific binding call was “binds”.

For YKGKGSSY, the non-specific binding call is “binds”.

On to SKGKGAVA, for which the non-specific binding call was “binds”.

SKGRGALA: the non-specific binding call was “binds”.

Take VKGRADVF: the non-specific binding call was “no binding”.

Consider VKGRADVD, for which the non-specific binding call is “no binding”.

FKGKGVGD: the non-specific binding call is recorded as “binds”.

Turning to FKGKGAVV, the non-specific binding call was “binds”.

FKGKGAVA: the non-specific binding call is reported as “binds”.

Turning to FKGKGFGA, the non-specific binding call is given as “binds”.

With YKGRAALY, the non-specific binding call was “binds”.

Consider VKGRADGV, for which the non-specific binding call is recorded as “no binding”.

In the case of VKGRADGS, the non-specific binding call is “no binding”.

For FKGKGSWD, the non-specific binding call is “binds”.

Turning to VKGRGAAY, the non-specific binding call is “binds”.

In the case of YKGKGSWD, the non-specific binding call is given as “binds”.

YKGKGSWA: the non-specific binding call is reported as “binds”.

In the case of VKGKDVGY, the non-specific binding call was “binds”.

Take AKGRADVY: the non-specific binding call is “no binding”.

In the case of VKGRGAGY, the non-specific binding call is recorded as “binds”.

Consider VKGRGAGS, for which the non-specific binding call is on record as “binds”.

For the variant FKGKSSSD, the non-specific binding call is recorded as “binds”.

Take YKGRGAAF: the non-specific binding call is listed as “binds”.

As for YKGRGAAY, the non-specific binding call is given as “binds”.

In the case of YKGRGAAS, the non-specific binding call was “binds”.

Regarding FKGRGALA, the non-specific binding call is given as “binds”.

As for SKGKGSWD, the non-specific binding call is “binds”.

On to YKGKDSVD, for which the non-specific binding call is “no binding”.

As to VKGKGAWD, the non-specific binding call is listed as “binds”.

Consider YKGKGDAD, for which the non-specific binding call is recorded as “binds”.

For FKGRDSGS, the non-specific binding call was “binds”.

For the variant VKGRAYGV, the non-specific binding call is recorded as “no binding”.

Consider FKGRGAGS, for which the non-specific binding call is “binds”.

Source of the values: the emibetuzumab library of Makowski et al. (2022).
